MFI, % Block and Inhibition rate (%) data for three substances are collected here from patent publication US20210324080A1.

Test [1] addresses human CTLA-4 (Y201V), full length, on transfected cells (human) (UniProt P16410). The experiment in a line: FACS, CHOK1-hCTLA-4 cells. (In general: Flow cytometry measures light scatter and fluorescence of single cells or particles in a stream.)
The target is the same in test [2]. The test is described as follows: FACS, human CTLA-4 expressing cells.
Test [3] has as its target monkey CTLA-4, full length, on transfected HEK293 cells (monkey). The test is described as follows: FACS, monkey CTLA-4 expressing cells.
The target is the same in test [4]. The test is described as follows: FACS, 293F-cCTLA-4 cells.
Test [5] concerns the target CTLA-4-hFc (immunogen A; hFc-labeled CTLA-4 extracellular domain protein) (human) (UniProt P16410). The experiment in a line: blocking assay, CTLA-4 protein, competitor B7.1.
For test [6] the target is unchanged. The experiment in a line: blocking assay, CTLA-4 protein, competitor B7.2.
Test [7] shares this target. The experiment in a line: ELISA, coated CTLA-4-hFc, competitor biotin-B7.1-hFc. Background: In an ELISA, binding on a coated surface is turned into a signal by an enzyme label.
Test [8] shares this target. The experiment in a line: ELISA, coated CTLA-4-hFc, competitor biotin-B7.2-hFc.

Sequence of CTLA-4-hFc (immunogen A; hFc-labeled CTLA-4 extracellular domain protein) (human) (P16410 36-161 limits assumed): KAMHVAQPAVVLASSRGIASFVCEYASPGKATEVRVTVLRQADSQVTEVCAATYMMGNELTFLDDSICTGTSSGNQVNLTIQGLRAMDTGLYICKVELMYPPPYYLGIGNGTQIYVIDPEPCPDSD
Sequence of human CTLA-4 (Y201V), full length, on transfected cells (human) (P16410 36-223 Y201V): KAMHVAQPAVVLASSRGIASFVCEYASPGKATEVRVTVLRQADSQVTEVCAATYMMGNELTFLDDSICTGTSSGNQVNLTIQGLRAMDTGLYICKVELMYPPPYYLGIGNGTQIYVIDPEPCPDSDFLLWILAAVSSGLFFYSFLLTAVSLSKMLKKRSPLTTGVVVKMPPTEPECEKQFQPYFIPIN

Regarding IgG control (human IgG) (antibody), in test [1], the MFI at 0.07 nM was determined as 2, the MFI at 0.67 nM was 2, the MFI at 6.67 nM was determined as 3 and the MFI at 66.67 nM was 8. In test [2], the MFI at 0.000128 nM was found to be 3, the MFI at 0.0128 nM came out at 3, the MFI at 0.064 nM is 3 and the MFI at 0.32 nM came out at 3. In test [2], this substance showed an MFI at 1.6 nM of 3, an MFI at 8 nM of 3, an MFI at 40 nM of 4 and an MFI at 200 nM of 6. Moreover, in test [3], the MFI at 0.000128 nM amounted to 3, the MFI at 0.0128 nM stood at 3, the MFI at 0.064 nM came out at 3 and the MFI at 0.32 nM amounted to 2. In test [3], this substance returned an MFI at 1.6 nM of 3, an MFI at 8 nM of 3, an MFI at 40 nM of 3 and an MFI at 200 nM of 5.

In test [4], hIgG1 (antibody) registered an MFI at 0.000128 nM of 2.7, an MFI at 0.0128 nM of 2.6, an MFI at 0.064 nM of 2.6 and an MFI at 0.32 nM of 2.4. In test [4], the MFI at 1.6 nM was determined as 2.6, the MFI at 8 nM turned out to be 2.9, the MFI at 40 nM came out at 3.3 and the MFI at 200 nM was 4.9. In test [5], the % Block at 0.000128 nM amounted to 0%, the % Block at 0.0128 nM is -2%, the % Block at 0.064 nM came out at 0.2% and the % Block at 1.6 nM came out at 1.3%. Moreover, in test [5], the % Block at 8 nM is -0.1%, the % Block at 40 nM was 1.6% and the % Block at 200 nM is -0.3%. In test [6], the % Block at 0.000128 nM is 0%, the % Block at 0.0128 nM was 12.3%, the % Block at 0.064 nM came to 12.9% and the % Block at 0.32 nM was 15.5%. In test [6], the % Block at 1.6 nM is 4.1%, the % Block at 8 nM came to 4.9%, the % Block at 40 nM stood at 18.3% and the % Block at 200 nM stood at 12.4%.

Regarding hIgG4 (antibody), in test [7], the Inhibition rate (%) at 0.00091 nM is 0%, the Inhibition rate (%) at 0.091 nM was -36%, the Inhibition rate (%) at 0.274 nM is -41% and the Inhibition rate (%) at 0.823 nM was -37%. Also, in test [7], the Inhibition rate (%) at 2.5 nM was -39%, the Inhibition rate (%) at 7.4 nM was -40%, the Inhibition rate (%) at 22.2 nM was -41% and the Inhibition rate (%) at 66.7 nM was -10%. Besides, in test [8], the Inhibition rate (%) at 0.00091 nM was determined as 0%, the Inhibition rate (%) at 0.091 nM was -8%, the Inhibition rate (%) at 0.274 nM is -10% and the Inhibition rate (%) at 0.823 nM is -1%. Further, in test [8], the Inhibition rate (%) at 2.5 nM was -7%, the Inhibition rate (%) at 7.4 nM was -12%, the Inhibition rate (%) at 22.2 nM was determined as 10% and the Inhibition rate (%) at 66.7 nM came out at 61%.
